Patent US20090291081A1 (AbbVie / Abbott, published 2009)

Each binder was assayed against T1, human IL-1β (human, UniProt P01584 117-269) (assay: Table 60 heading; dAbs from selection on antigen).
T1 construct: also called IL-1beta; hIL-1β

Binder | binding result
ABT2-108-509 (other, VH dAb) VH: EVQLLESGGGLVQPGGSLRLSCAASGFTFAEYTMMWVRQAPGKGLEWVSRITYSGKNTYYADSVKGRFTISRDNSKNTLYLQMNSLRAEDTAVYYCAKYTGRVGVHHLFDYWGQGTLVTVSS | binds
ABT2-108-511 (other, VH dAb) VH: EVQLLESGGGLVQPGGSLRLSCAASGFTFAEYTMMWVRQAPGKGLEWVSRIGQDGKNTVIRDSVKGRFTISRDNSKNTLYLQMNSLRAEDTAVYYCAKYTGRVGVHHLFDYWGQGTLVTVSS | binds
ABT2-108-518 (other, VH dAb) VH: EVQLLESGGGLVQPGGSLRLSCAASGFTFAEYTMMWVRQAPGKGLEWVSRIGQDGKNTYYRMDVKGRFTISRDNSKNTLYLQMNSLRAEDTAVYYCAKYTGRVGVHHLFDYWGQGTLVTVSS | binds
ABT2-108-524 (other, VH dAb) VH: EVQLLESGGGLVQPGGSLRLSCAASGFTFAEYTMMWVRQAPGKGLEWVSRIGQDGKNTYYADSVKGRFTISRDNSKNTLYLQMNSLRAEDTAVYYCAKYTGRVFNHHLFDYWGQGTLVTVSS | binds
ABT2-108-527 (other, VH dAb) VH: EVQLLESGGGLVQPGGSLRLSCAASGFTFAEYTMMWVRQAPGKGLEWVSRIGQDGKNTYYADSVKGRFTISRDNSKNTLYLQMNSLRAEDTAVYYCAKYTGRVFKHHLFDYWGQGTLVTVSS | binds
ABT2-108-534x (other, VH dAb) VH: EVQLLESGGGLVQPGGSLRLSCAASGFTFADEGMMWVRQAPGKGLEWVSRITYSGKNTYYADSVKGRFTISRDNSKNTLYLQMNSLRAEDTAVYYCAKYTGRIFSHHLFDYWGQGTLVTVSS | binds
ABT2-108-601 (other, VH dAb) VH: EVQLLESGGGLVQPGGSLRLSCAASGFTFAEESWMWVRQAPGKGLEWVSRIGQDGKNTYYADSVKGRFTISRDNSKNTLYLQMNSLRAEDTAVYYCAKYTGRVGVHHLFDYWGQGTLVTVSS | binds
ABT2-108-602 (other, VH dAb) VH: EVQLLESGGGLVQPGGSLRLSCAASGFTFAEEKYMWVRQAPGKGLEWVSRIGQDGKNTYYADSVKGRFTISRDNSKNTLYLQMNSLRAEDTAVYYCAKYTGRVGVHHLFDYWGQGTLVTVSS | binds
ABT2-108-603 (other, VH dAb) VH: EVQLLESGGGLVQPGGSLRLSCAASGFTFAEYTMMWVRQAPGKGLEWVSRITDAGKNTYYADSVKGRFTISRDNSKNTLYLQMNSLRAEDTAVYYCAKYTGRVGVHHLFDYWGQGTLVTVSS | binds
ABT2-108-604 (other, VH dAb) VH: EVQLLESGGGLVQPGGSLRLSCAASGFTFAEYTMMWVRQAPGKGLEWVSRVTYDGKNTYYADSVKGRFTISRDNSKNTLYLQMNSLRAEDTAVYYCAKYTGRVGVHHLFDYWGQGTLVTVSS | binds
ABT2-108-605 (other, VH dAb) VH: EVQLLESGGGLVQPGGSLRLSCAASGFTFAEYTMMWVRQAPGKGLEWVSRIGQDGKNTYYREDVKGRFTISRDNSKNTLYLQMNSLRAEDTAVYYCAKYTGRVGVHHLFDYWGQGTLVTVSS | binds
ABT2-108-606 (other, VH dAb) VH: EVQLLESGGGLVQPGGSLRLSCAASGFTFAEYTMMWVRQAPGKGLEWVSRIGQDGKNTYYRSSVKGRFTISRDNSKNTLYLQMNSLRAEDTAVYYCAKYTGRVGVHHLFDYWGQGTLVTVSS | binds
ABT2-108-607 (other, VH dAb) VH: EVQLLESGGGLVQPGGSLRLSCAASGFTFAEYTMMWVRQAPGKGLEWVSRIGQDGKNTYYRSDVKGRFTISRDNSKNTLYLQMNSLRAEDTAVYYCAKYTGRVGVHHLFDYWGQGTLVTVSS | binds
ABT2-108-612 (other, VH dAb) VH: EVQLLESGGGLVQPGGSLRLSCAASGFTFAEYTMMWVRQAPGKGLEWVSRIGQDGKNTYYADSVKGRFTISRDNSKNTLYLQMNSLRAEDTAVYYCAKYTGRIMGHHLFDYWGQGTLVTVSS | binds
ABT2-108-617 (other, VH dAb) VH: EVQLLESGGGLVQPGGSLRLSCAASGFTFAEYTMMWVRQAPGKGLEWVSRIGQDGKNTYYADSVKGRFTISRDNSKNTLYLQMNSLRAEDTAVYYCAKYTGRIFTHHLFDYWGQGTLVTVSS | binds
ABT2-108-620S (other, VH dAb) VH: EVQLLESGGGLVQPGGSLRLSCAASGFTFSEESWMWVRQAPGKGLEWVSRIGQDGKNTYYREDVKGRFTISRDNSKNTLYLQMNSLRAEDTAVYYCAKYTGRIMGHHLFDYWGQGTLVTVSS | binds
ABT2-108-620x (other, VH dAb) VH: EVQLLESGGGLVQPGGSLRLSCAASGFTFAEESWMWVRQAPGKGLEWVSRIGQDGKNTYYREDVKGRFTISRDNSKNTLYLQMNSLRAEDTAVYYCAKYTGRIMGHHLFDYWGQGTLVTVSS | binds

The binders below were run against T2, human IL-1α (human, UniProt P01583 113-271) (assay: Table 60 heading; dAbs from selection on antigen).
T2 construct: also called IL-1alpha; hIL-1α
T2 sequence (looked up): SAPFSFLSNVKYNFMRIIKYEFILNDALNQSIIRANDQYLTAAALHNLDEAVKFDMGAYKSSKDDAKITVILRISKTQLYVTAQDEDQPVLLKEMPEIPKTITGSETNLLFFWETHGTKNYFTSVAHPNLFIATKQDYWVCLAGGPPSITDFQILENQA

Binder | binding result
ABT1-95-A4 (other, VK dAb) VL: DIQMTQSPSSLSASVGDRVTITCRASRPGVRNLRWYQQKPGKAPKLLIYSRSFLEPGVPSRFSGSGSGTDFTLTISSLQPEDFATYHCLQGYRWPPTFGQGTKVEIKR | binds
ABT1-122-553 (other, VK dAb) VL: DIQMTQSPSSLSASVGDRVTITCRASQPIWTELKWYQQKPGKAPKLLIYGSSSLQSGVPSRFSGSGSGTDFTLTISSLQPEDFATYYCQQFAYFPATFGQGTKVEIKR | binds
ABT1-222 (other, VK dAb) VL: DIQMTQSPSSLSASVGDRVTITCRASQPITRNLRWYQQKPGKAPKLLIYHSSVLQSGVPSRFSGSGSGTDFTLTISSLQPEDFATYYCQQGYRWPVTFGQGTKVEIKR | binds
ABT1-207 (other, VH dAb) VH: EVQLLESGGGLIQPGGSLRLSCAASGFTFGRYYMSWVRQAPGKGLEWVSSIDYLGTNTYYADSVKGRFTISRDNSKNTLYLQMNSLRAEDTAVYYCAKLTRIRPPNFDYWGQGTLVTVSS | binds
ABT1-122-505 (other, VK dAb) VL: DIQMTQSPSSLSASVGDRVTITCRASQPIWTELNWYQQKPGKAPKLLIYGSSSLQSGVPSRFSGSGSGTDFTLTISSLQPEDFATYYCKQFAYFPATFGQGTKVEIKR | binds
ABT1-122-508 (other, VK dAb) VL: DIQMTQSPSSLSASVGDRVTITCRASQPIWTELNWYQQKPGKAPKLLIYGSSSLQRGVPSRFSGSGSGTDFTLTISSLQPEDFATYYCQQFAYFPATFGQGTKVEIKR | binds
ABT1-122-510 (other, VK dAb) VL: DIQMTQSPSSLSASVGDRVTITCRFSYPIWTELNWYQQKPGKAPKLLIYGSSSLQSGVPSRFSGSGSGTDFTLTISSLQPEDFATYYCQQFAYFPATFGQGTKVEIKR | binds
ABT1-122-512 (other, VK dAb) VL: DIQMTQSPSSLSASVGDRVTITCRASQPIWTELNWYQQKPGKAPKLLIYGSAKRQRGVPSRFSGSGSGTDFTLTISSLQPEDFATYYCKQFAYFPATFGQGTKVEIKR | binds
ABT1-122-513 (other, VK dAb) VL: DIQMTQSPSSLSASVGDRVTITCRASQPIWTELNWYQQKPGKAPKLLIYGSGSRQRGVPSRFSGSGSGTDFTLTISSLQPEDFATYYCKQFAYFPATFGQGTKVEIKR | binds
ABT1-122-551 (other, VK dAb) VL: DIQMTQSPSSLSASVGDRVTITCRAKFNIWTELNWYQQKPGKTPKLLIYGSSSLQSGVPSRFSGSGSGTDFTLTISSLQPEDFATYYCQQFAYFPATFGQGTKVEIKR | binds
ABT1-122-552 (other, VK dAb) VL: DIQMTQSPSSLSASVGDRVTITCRASLGVWTELNWYQQKPGKAPKLLIYGSSSLQSGVPSRFSGSGSGTDFTLTISSLQPEDFATYYCQQFAYFPATFGQGTKVEIKR | binds
ABT1-122-555 (other, VK dAb) VL: DIQMTQSPSSLSASVGDRVTITCRASQPIWTELNWYQQKPGKTPKLLIYGSSSLQSGVPSRFSGSGSGTDFTLTISSLQPEDFATYYCQQFAYFPATFGQGTKVEIKR | binds
ABT1-122-556 (other, VK dAb) VL: DIQMTQSPSSLSASVGDRVTITCRASQPIWTELNWYQQKPGKAPKLLIYGSSSLQSGVPSRFSGSGSGTDFTLTISSLQPEDFATYHCQQFAYFPATFGQGTKVEIKR | binds
ABT1-122-750M (other, VK dAb) VL: DIQMTQSPSSLSASVGDRVTITCSASQHIWTEMSWYQQKPGKAPKLLIYGSASRQKGVPSRFSGSGSGTDFTLTISSLQPEDFATYYCKQFAYFPNTFGQGTKVEIKR | binds
ABT1-122-750MH (other, VK dAb) VL: DIQMTQSPSSLSASVGDRVTITCSASQHIWTEMSWYQQKPGKAPKLLIYGSASRQKGVPSRFSGSGSGTDFTLTISSLQPEDFATYHCKQFAYFPNTFGQGTKVEIKR | binds
ABT1-122-750MT (other, VK dAb) VL: DIQMTQSPSSLSASVGDRVTITCSASQHIWTEMSWYQQKPGKTPKLLIYGSASRQKGVPSRFSGSGSGTDFTLTISSLQPEDFATYYCKQFAYFPNTFGQGTKVEIKR | binds
